According to article PMC12781872, “Differential association of primary and alternative σ factors with RNA polymerase of Mycobacterium tuberculosis during transcription elongation” (Nucleic Acids Research, 2026):

Target: T1, Mycobacterium tuberculosis RNA polymerase core (α2ββ'ω), wildtype (Mycobacterium tuberculosis, UniProt P9WGZ1;P9WGY9;P9WGY7;P9WGY5)
T1 construct: also called Mtb RNAP core; unlabelled RNAP core; copies: 2 + + +
Test: native gel or EMSA
Conditions: both partners purified

T1 sequence (P9WGZ1 whole entry, chain 1 of 4): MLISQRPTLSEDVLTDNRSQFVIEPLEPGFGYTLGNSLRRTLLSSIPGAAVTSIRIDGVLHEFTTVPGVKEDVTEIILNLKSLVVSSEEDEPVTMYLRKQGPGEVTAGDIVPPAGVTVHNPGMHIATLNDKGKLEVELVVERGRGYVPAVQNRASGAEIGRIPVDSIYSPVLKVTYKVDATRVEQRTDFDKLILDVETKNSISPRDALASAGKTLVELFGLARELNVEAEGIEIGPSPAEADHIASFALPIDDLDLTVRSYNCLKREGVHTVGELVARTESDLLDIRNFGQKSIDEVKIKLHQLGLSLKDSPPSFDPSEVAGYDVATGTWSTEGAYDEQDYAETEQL
T1 sequence (P9WGY9 whole entry, chain 2 of 4): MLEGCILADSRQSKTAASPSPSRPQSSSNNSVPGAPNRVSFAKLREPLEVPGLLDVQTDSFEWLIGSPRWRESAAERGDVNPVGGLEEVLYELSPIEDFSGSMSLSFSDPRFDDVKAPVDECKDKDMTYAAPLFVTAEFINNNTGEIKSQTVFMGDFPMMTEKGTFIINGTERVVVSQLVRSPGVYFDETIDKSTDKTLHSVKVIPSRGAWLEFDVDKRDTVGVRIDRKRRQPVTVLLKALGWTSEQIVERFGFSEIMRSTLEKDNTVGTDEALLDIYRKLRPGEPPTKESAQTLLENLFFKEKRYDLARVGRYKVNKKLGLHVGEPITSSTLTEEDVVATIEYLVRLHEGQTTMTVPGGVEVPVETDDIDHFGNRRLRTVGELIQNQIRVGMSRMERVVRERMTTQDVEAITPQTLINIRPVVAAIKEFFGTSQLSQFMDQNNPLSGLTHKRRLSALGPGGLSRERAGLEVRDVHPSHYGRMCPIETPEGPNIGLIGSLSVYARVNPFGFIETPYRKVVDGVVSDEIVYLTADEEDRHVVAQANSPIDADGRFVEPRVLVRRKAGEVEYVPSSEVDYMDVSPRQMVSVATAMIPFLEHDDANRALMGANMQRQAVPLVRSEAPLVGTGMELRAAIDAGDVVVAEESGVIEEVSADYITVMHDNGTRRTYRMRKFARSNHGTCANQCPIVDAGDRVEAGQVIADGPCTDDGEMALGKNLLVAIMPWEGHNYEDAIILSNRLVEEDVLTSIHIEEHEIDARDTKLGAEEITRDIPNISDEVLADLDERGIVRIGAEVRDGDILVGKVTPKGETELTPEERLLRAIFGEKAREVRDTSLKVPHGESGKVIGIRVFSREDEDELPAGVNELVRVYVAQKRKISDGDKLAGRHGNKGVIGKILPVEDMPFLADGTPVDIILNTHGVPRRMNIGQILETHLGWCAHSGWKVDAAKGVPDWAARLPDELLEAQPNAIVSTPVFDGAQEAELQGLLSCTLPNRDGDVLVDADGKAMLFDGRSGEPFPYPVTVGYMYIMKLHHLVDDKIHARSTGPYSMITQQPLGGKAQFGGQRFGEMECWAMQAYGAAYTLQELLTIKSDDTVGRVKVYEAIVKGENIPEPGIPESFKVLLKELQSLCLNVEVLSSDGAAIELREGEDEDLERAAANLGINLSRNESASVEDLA
T1 sequence (P9WGY7 whole entry, chain 3 of 4): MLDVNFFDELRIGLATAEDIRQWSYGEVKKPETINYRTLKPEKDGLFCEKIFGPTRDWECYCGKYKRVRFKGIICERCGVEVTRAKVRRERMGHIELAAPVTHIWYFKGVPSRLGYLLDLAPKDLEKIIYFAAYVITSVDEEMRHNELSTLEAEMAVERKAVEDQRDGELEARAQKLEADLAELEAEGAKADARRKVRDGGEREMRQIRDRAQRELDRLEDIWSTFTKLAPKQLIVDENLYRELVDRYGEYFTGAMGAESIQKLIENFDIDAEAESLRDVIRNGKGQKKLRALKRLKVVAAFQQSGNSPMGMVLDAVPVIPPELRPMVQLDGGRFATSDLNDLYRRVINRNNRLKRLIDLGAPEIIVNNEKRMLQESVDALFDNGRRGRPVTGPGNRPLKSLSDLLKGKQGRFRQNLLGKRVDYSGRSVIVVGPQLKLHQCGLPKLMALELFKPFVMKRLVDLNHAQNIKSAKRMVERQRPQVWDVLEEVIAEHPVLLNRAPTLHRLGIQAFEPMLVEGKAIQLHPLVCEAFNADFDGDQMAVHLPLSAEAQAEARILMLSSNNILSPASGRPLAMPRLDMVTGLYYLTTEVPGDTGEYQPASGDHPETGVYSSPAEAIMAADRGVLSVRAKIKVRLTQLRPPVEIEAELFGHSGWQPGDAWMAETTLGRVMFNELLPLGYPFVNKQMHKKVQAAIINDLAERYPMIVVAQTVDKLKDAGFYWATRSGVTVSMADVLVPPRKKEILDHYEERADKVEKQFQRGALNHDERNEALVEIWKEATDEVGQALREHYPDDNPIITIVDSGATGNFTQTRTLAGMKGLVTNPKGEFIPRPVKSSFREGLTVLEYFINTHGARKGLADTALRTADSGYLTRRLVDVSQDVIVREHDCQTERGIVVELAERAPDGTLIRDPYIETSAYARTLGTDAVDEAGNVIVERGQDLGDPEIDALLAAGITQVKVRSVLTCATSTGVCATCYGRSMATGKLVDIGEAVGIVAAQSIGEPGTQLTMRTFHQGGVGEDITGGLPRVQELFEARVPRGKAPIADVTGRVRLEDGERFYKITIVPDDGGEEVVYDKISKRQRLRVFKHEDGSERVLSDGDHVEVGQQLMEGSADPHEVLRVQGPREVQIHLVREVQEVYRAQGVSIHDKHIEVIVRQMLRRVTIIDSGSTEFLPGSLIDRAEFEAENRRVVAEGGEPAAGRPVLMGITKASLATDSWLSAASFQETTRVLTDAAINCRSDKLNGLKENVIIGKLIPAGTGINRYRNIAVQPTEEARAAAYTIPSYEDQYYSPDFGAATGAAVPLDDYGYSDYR
T1 sequence (P9WGY5 whole entry, chain 4 of 4): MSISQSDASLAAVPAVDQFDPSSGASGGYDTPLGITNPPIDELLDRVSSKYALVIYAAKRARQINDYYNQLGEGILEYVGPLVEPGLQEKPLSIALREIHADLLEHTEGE

B1: TMR-labelled Mtb σ^F (wild type, labelled at the natural cysteine, residue 47 of σ2) (natural protein)
chain: MTARAAGGSASRANEYADVPEMFRELVGLPAGSPEFQRHRDKIVQRCLPLADHIARRFEGRGEPRDDLIQVARVGLVNAAVRFDVKTGSDFVSFAVPTIMGEVRRHFRDNSWSVKVPRRLKELHLRLGTATADLSQRLGRAPSASELAAELGMDRAEVIEGLLAGSSYHTLSIDSGGGSDDDARAITDTLGDVDAGLDQIENREVLRPLLEALPERERTVLVLRFFDSMTQTQIAERVGISQMHVSRLLAKSLARLRDQLE
notes: also called TMR-labelled σ^F; σ^F labelled with TMR at region 2
- fractional occupancy relative to RPo, at RPitc (usfXP1): ~96%
- fractional occupancy relative to RPo, at TEC+17 (usfXP1): 89%
- fractional occupancy relative to RPo, at TEC+23 (usfXP1): 87%
- fractional occupancy relative to RPo, at TEC+28 (usfXP1): 83%
- fractional occupancy relative to RPo, at TEC+64 (usfXP1): 82%

B2: TMR-labelled Mtb σ^E used in EMSA and anisotropy assays (natural protein)
chain: MELLGGPRVGNTESQLCVADGDDLPTYCSANSEDLNITTITTLSPTSMSHPQQVRDDQWVEPSDQLQGTAVFDATGDKATMPSWDELVRQHADRVYRLAYRLSGNQHDAEDLTQETFIRVFRSVQNYQPGTFEGWLHRITTNLFLDMVRRRARIRMEALPEDYDRVPADEPNPEQIYHDARLGPDLQAALASLPPEFRAAVVLCDIEGLSYEEIGATLGVKLGTVRSRIHRGRQALRDYLAAHPEHGECAVHVNPVR
notes: also called TMR-labelled σ^E; labelled σ^E
- fractional occupancy relative to RPo, at RPitc (sigB): ~93%
- fractional occupancy relative to RPo, at TEC+15 (sigB): 55%
- fractional occupancy relative to RPo, at TEC+23 (sigB): 47%
- fractional occupancy relative to RPo, at TEC+27 (sigB): 45%
- fractional occupancy relative to RPo, at TEC+84 (sigB): 38%

B3: Alexafluor-488 labelled Mtb σ^A (natural protein)
chain: MAATKASTATDEPVKRTATKSPAASASGAKTGAKRTAAKSASGSPPAKRATKPAARSVKPASAPQDTTTSTIPKRKTRAAAKSAAAKAPSARGHATKPRAPKDAQHEAATDPEDALDSVEELDAEPDLDVEPGEDLDLDAADLNLDDLEDDVAPDADDDLDSGDDEDHEDLEAEAAVAPGQTADDDEEIAEPTEKDKASGDFVWDEDESEALRQARKDAELTASADSVRAYLKQIGKVALLNAEEEVELAKRIEAGLYATQLMTELSERGEKLPAAQRRDMMWICRDGDRAKNHLLEANLRLVVSLAKRYTGRGMAFLDLIQEGNLGLIRAVEKFDYTKGYKFSTYATWWIRQAITRAMADQARTIRIPVHMVEVINKLGRIQRELLQDLGREPTPEELAKEMDITPEKVLEIQQYAREPISLDQTIGDEGDSQLGDFIEDSEAVVAVDAVSFTLLQDQLQSVLDTLSEREAGVVRLRFGLTDGQPRTLDEIGQVYGVTRERIRQIESKTMSKLRHPSRSQVLRDYLD
notes: also called AF488 labelled σ^A; σ^A-488
- fractional occupancy relative to RPo, at RPitc (sinP3): ~95%
- fractional occupancy relative to RPo, at TEC+16 (sinP3): 77%
- fractional occupancy relative to RPo, at TEC+23 (sinP3): 72%
- fractional occupancy relative to RPo, at TEC+29 (sinP3): 63%
- fractional occupancy relative to RPo, at TEC+59 (sinP3): 49%
